# T1: PF3D7_0420300 D1 (Plasmodium falciparum, UniProt Q8I1N6 1956-2015)
# T1 sequence: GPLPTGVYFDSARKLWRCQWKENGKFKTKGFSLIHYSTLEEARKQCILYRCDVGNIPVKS
# B1: CACACA_site117 (dsDNA)
# DNA 1: ATATATATAAAACACACACACAAAAAAAATAAAGAC
# DNA 2: GTCTTTATTTTTTTTGTGTGTGTGTTTTATATATAT
# B2: CACACA_negctrl_site1241 (dsDNA)
# DNA 1: ATTTTTTTTTTTTTTTTTTTTTTGTTTATACAAAAT
# DNA 2: ATTTTGTATAAACAAAAAAAAAAAAAAAAAAAAAAT
# B3: CACACA_negctrl_site491 (dsDNA)
# DNA 1: ATTTAATATCACAATATATTTTTTACCCTTATCAGC
# DNA 2: GCTGATAAGGGTAAAAAATATATTGTGATATTAAAT
# B4: CACACA_negctrl_site129 (dsDNA)
# DNA 1: AAGCATTTTTTTTAAAGCCTGTTCATCATCCTTACC
# DNA 2: GGTAAGGATGATGAACAGGCTTTAAAAAAAATGCTT
# B5: CACACA_negctrl_site1765 (dsDNA)
# DNA 1: TACTTTATATTATATATATATATATATATATATATA
# DNA 2: TATATATATATATATATATATATATAATATAAAGTA
# B6: CACACA_negctrl_site583 (dsDNA)
# DNA 1: AAAAAAAAAAAAAAAAAAAAAAAAATATATAATTTA
# DNA 2: TAAATTATATATTTTTTTTTTTTTTTTTTTTTTTTT
# B7: CACACA_negctrl_site1083 (dsDNA)
# DNA 1: ATGAAAAAAAAAAAAAAAAAAAAAAAAAAAAAAATA
# DNA 2: TATTTTTTTTTTTTTTTTTTTTTTTTTTTTTTTCAT
# B8: CACACA_negctrl_site1084 (dsDNA)
# DNA 1: TTTTATTGATTATTCATAAATATGCTATTCATCTAA
# DNA 2: TTAGATGAATAGCATATTTATGAATAATCAATAAAA
# B9: CACACA_negctrl_site793 (dsDNA)
# DNA 1: TCCTATAATTTTTTAATCAAAATATTTTATCCTTTG
# DNA 2: CAAAGGATAAAATATTTTGATTAAAAAATTATAGGA
# B10: CACACA_negctrl_site674 (dsDNA)
# DNA 1: TAAAATGATAAATGAATGTGATCATTTTATAAAATA
# DNA 2: TATTTTATAAAATGATCACATTCATTTATCATTTTA
# B11: CACACA_negctrl_site1311 (dsDNA)
# DNA 1: TTACATTTTTGAAATAGATACATACACGTGTATGTA
# DNA 2: TACATACACGTGTATGTATCTATTTCAAAAATGTAA
# B12: CACACA_negctrl_site1491 (dsDNA)
# DNA 1: GTAGCCTTTCTTTATAAAGGCAAACAAACAAAAAAT
# DNA 2: ATTTTTTGTTTGTTTGCCTTTATAAAGAAAGGCTAC
# B13: CACACA_negctrl_site620 (dsDNA)
# DNA 1: TTTTTTTACTTAATAGTTCAACATATATCTCAATGT
# DNA 2: ACATTGAGATATATGTTGAACTATTAAGTAAAAAAA
# B14: CACACA_negctrl_site730 (dsDNA)
# DNA 1: AGATGATATATTATATATCCTTTTAATAAATGTAAT
# DNA 2: ATTACATTTATTAAAAGGATATATAATATATCATCT
# B15: CACACA_negctrl_site173 (dsDNA)
# DNA 1: TTTTATATATATATATATATATATATATATGTATAT
# DNA 2: ATATACATATATATATATATATATATATATATAAAA
# B16: CACACA_negctrl_site905 (dsDNA)
# DNA 1: TATAATAATAATAATAATAATAATAATAATAATAAT
# DNA 2: ATTATTATTATTATTATTATTATTATTATTATTATA
# B17: CACACA_negctrl_site329 (dsDNA)
# DNA 1: TTTAATTTATATAATGATATTAAGTTGGTTATTAGG
# DNA 2: CCTAATAACCAACTTAATATCATTATATAAATTAAA
# B18: CACACA_negctrl_site1423 (dsDNA)
# DNA 1: TTTTTATAACTATATTATATAACTTTTGTACGAACT
# DNA 2: AGTTCGTACAAAAGTTATATAATATAGTTATAAAAA
# Target: T1, PF3D7_0420300 D1
# Assay: gcPBM; about 25 ug protein; PBS, 1% milk, 0.2 mg/ml BSA, salmon testes DNA, 0.03% Triton X-100
# Details: tags: N-terminal GST (pGEX-4T-1), kept; label: surface-attached array probe
row,Binder,binding signal
1,B1,"10.6 ln median PBM intensity, better of two orientations"
2,B2,"9.04 ln median PBM intensity, better of two orientations"
3,B3,"9.04 ln median PBM intensity, better of two orientations"
4,B4,"9.02 ln median PBM intensity, better of two orientations"
5,B5,"9 ln median PBM intensity, better of two orientations"
6,B6,"9.05 ln median PBM intensity, better of two orientations"
7,B7,"9.02 ln median PBM intensity, better of two orientations"
8,B8,"9.01 ln median PBM intensity, better of two orientations"
9,B9,"9.02 ln median PBM intensity, better of two orientations"
10,B10,"9.01 ln median PBM intensity, better of two orientations"
11,B11,"9.01 ln median PBM intensity, better of two orientations"
12,B12,"9.04 ln median PBM intensity, better of two orientations"
13,B13,"9.02 ln median PBM intensity, better of two orientations"
14,B14,"9.03 ln median PBM intensity, better of two orientations"
15,B15,"9.03 ln median PBM intensity, better of two orientations"
16,B16,"9.03 ln median PBM intensity, better of two orientations"
17,B17,"9 ln median PBM intensity, better of two orientations"
18,B18,"9.01 ln median PBM intensity, better of two orientations"

# Source: paper PMC11417369, “DNA sequence and chromatin differentiate sequence-specific transcription factor binding in the human malaria parasite Plasmodium falciparum”
